Assay results published in publication PMC9606073 (Immunity, 2022).

B1: M8a-3 IgG (antibody, V domains shown)
VH: QVQLQQPGAELVLPGASVKLSCKASGYTFTNYWMHWVKQRPGHGLEWIGEIDPFDTYIKINQKFKGKSTLTVDTSSSTAYMQLSSLTSEDSAVYYCARPDSSGYPVYFDYWGQGTTLTVSS
VL: DIVMTQSHKFMSTSVGDRVSITCKASQDVGTYIAWYQQKPGQSPKLLIYWASTRHTGVPDRFTGSGSGTNYTLTISSVQAEDLALYHCQQHYSTPYTFGGGTKLEIK
notes: copies: 2 + 2
B2: C118 IgG (antibody, V domains shown)
VH: QVQLVESGGGVVQPGRSLRLSCAASGFTFSNYAMHWVRQAPGKGLEWVAVISYDGSNKYYADSVKGRFTISRDNSKNTLYLQMNSLRAEDTAIYYCASGYTGYDYFVRGDYYGLDVWGQGTTVTVSS
VL: QPVLTQSPSASASLGASVKLTCTLSSGHSSYAIAWHQQQPEKGPRYLMKLNTDGSHSKGDGIPDRFSGSSSGAERYLTISSLQSEDEADYYCQTWGTGILVFGGGTKLTVL
notes: copies: 2 + 2
B3: M8a-6 IgG (antibody, V domains shown)
VH: QVQLQQPGTELVMPGASVKLSCKTSGYTFTHYWMHWVKQRPGEGLEWIGEIAPSDNYVKYNQKFKGKSTLSVDRSSSTAYMQLSSLTSEDSAVYFCARPDNSGYPVYFDYWGQGTSLTVSS
VL: DIVMTQSQKFMSTSLGDRVSISCKASQDVGTTVAWYQQKPGQSPKLLIYWASTRHTGVPDRFTGTGSGTDYTLTISSVAAEDLALYYCQQHYNTPYTFGGGTKLEIE
notes: copies: 2 + 2

Biological target: SARS-CoV-2 Omicron BA.4/BA.5 RBD (SARS-CoV-2 Omicron BA.4/BA.5, strain)
Assay: SPR
Details: both partners purified

Binder	Kd [nM]	koff [s⁻¹]	kon [M⁻¹ s⁻¹]
B1	2.2	0.00045	210000
B2	28	0.0039	140000
B3	290		
